Reference: publication PMC5828221

Biological target: purified recombinant histone H3 protein (Active Motif C110A), PARylated in vitro by PARP1 (UniProt P68431)

human EZH2/EED/SUZ12/RbAp48/AEBP2 Complex (from UniProt Q15910 1-746; O75530 1-441; Q15022 1-739; Q09028 1-425; Q6ZN18 1-517)
decrease in H3K27me3 ELISA after in vitro methylation by the EZH2/PRC2 complex of PARylated against unmodified recombinant histone H3 (PARP1 removed beforehand): 30%
